According to the supplement of paper PMC10724198:

Key:
Saccharomyces cerevisiae [1] = experiment: protein stability index of tFT-peptide fusion in wild type (PSI (0-1 scale)); higher = more stable (slower turnover); conditions: genetic background: wild type
Experimental: (§1)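 MPS profiling in S. cerevisiae of two library types built from selected 12-aa C-degron peptides (IN1, IN2, LN1, LN3, VN2, R1-R5, W1-W3, Atg1 and Rpa12 C-termini): saturation mutagenesis libraries and C-terminal +1 capping libraries (13 aa). Each peptide is fused to the C-terminus of a sfGFP-mCherry timer, after a GGGS linker. Cells are FACS-sorted into 8 mCherry/sfGFP bins and sequenced. PSI runs from 0 (unstable) to 1 (stable), measured once in wild type and in the das1Δ or doa10Δ background.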

Saccharomyces cerevisiae [2] = experiment: protein stability index of tFT-peptide fusion in deletion strain of DAS1 (PSI (0-1 scale)); higher = more stable (slower turnover)
Experimental: as §1
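Wherever protein stability index of tFT-peptide fusion in deletion strain of DAS1 is given: PSI is a weighted mean of each variant's read distribution over the sorted stability bins, computed only for variants having over 10 reads in total.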
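Wherever protein stability index of tFT-peptide fusion in wild type is given: PSI derived as read-weighted mean over the 8 sorting bins, only variants exceeding 10 total reads kept, mCherry placed adjacent to the peptide and sfGFP distal.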

For ARWRVDLWRGAS, which protein stability index (Saccharomyces cerevisiae [1]) is on record?
Its protein stability index is 0.214.

What about the protein stability index (Saccharomyces cerevisiae [2]) of the same sequence?
Its protein stability index is 0.728.

With PSPAASFWRVVG as the sequence, how does the protein stability index (Saccharomyces cerevisiae [1]) read?
Its protein stability index is 0.115.

And the protein stability index (Saccharomyces cerevisiae [2])?
Its protein stability index is 0.69.

PDKRPHLIKLLN was tested. Which protein stability index (Saccharomyces cerevisiae [1]) did it give?
The protein stability index was 0.0997.

And the protein stability index (Saccharomyces cerevisiae [2])?
Its protein stability index is 0.678.

EKILRQKMNHQN was tested. Which protein stability index (Saccharomyces cerevisiae [1]) did it give?
Its protein stability index is 0.137.

What about the protein stability index (Saccharomyces cerevisiae [2]) of the same sequence?
The protein stability index was 0.681.

What does the source list for ARWRVGLWRNAS?
protein stability index (Saccharomyces cerevisiae [1]): 0.11; protein stability index (Saccharomyces cerevisiae [2]): 0.693

Which protein stability index (Saccharomyces cerevisiae [1]) does the source give for ARWCVGLWRGAS here?
The protein stability index was 0.357.

What about the protein stability index (Saccharomyces cerevisiae [2]) of the same sequence?
Its protein stability index is 0.7.

Which protein stability index (Saccharomyces cerevisiae [1]) does the source give for ARWRVGLMRGAS here?
Its protein stability index is 0.596.

And the protein stability index (Saccharomyces cerevisiae [2])?
Its protein stability index is 0.677.

What does the source list for CTSCGYKFRTNNS?
protein stability index (Saccharomyces cerevisiae [1]): 0.683; protein stability index (Saccharomyces cerevisiae [2]): 0.7

How did the protein stability index (Saccharomyces cerevisiae [1]) turn out when PDKRNHLIKLLNS was run?
The protein stability index was 0.117.

And the protein stability index (Saccharomyces cerevisiae [2])?
Its protein stability index is 0.669.

Which results are given for LKDLRQKMNHQN?
protein stability index (Saccharomyces cerevisiae [1]): 0.192; protein stability index (Saccharomyces cerevisiae [2]): 0.671

How did the protein stability index (Saccharomyces cerevisiae [1]) turn out when KKHKSGQKQKIN was run?
The protein stability index was 0.106.

What about the protein stability index (Saccharomyces cerevisiae [2]) of the same sequence?
Its protein stability index is 0.603.

With LKILRQKMNHQNF as the sequence, how does the protein stability index (Saccharomyces cerevisiae [1]) read?
Its protein stability index is 0.616.

What about the protein stability index (Saccharomyces cerevisiae [2]) of the same sequence?
Its protein stability index is 0.698.

How did the protein stability index (Saccharomyces cerevisiae [1]) turn out when FSYRWTFRYWVN was run?
Its protein stability index is 0.0328.

And the protein stability index (Saccharomyces cerevisiae [2])?
Its protein stability index is 0.53.

With SSMRWTFRYWVN as the sequence, how does the protein stability index (Saccharomyces cerevisiae [1]) read?
Its protein stability index is 0.113.

What about the protein stability index (Saccharomyces cerevisiae [2]) of the same sequence?
Its protein stability index is 0.608.

With PDKRNHLIKLLNM as the sequence, how does the protein stability index (Saccharomyces cerevisiae [1]) read?
The protein stability index was 0.145.

What about the protein stability index (Saccharomyces cerevisiae [2]) of the same sequence?
The protein stability index was 0.659.

Which results are given for VRGAVGGWRLMG?
protein stability index (Saccharomyces cerevisiae [1]): 0.177; protein stability index (Saccharomyces cerevisiae [2]): 0.66

Which results are given for PSLAASFWRVVGL?
protein stability index (Saccharomyces cerevisiae [1]): 0.683; protein stability index (Saccharomyces cerevisiae [2]): 0.713

What does the source list for FSMRWTFRYSVN?
protein stability index (Saccharomyces cerevisiae [1]): 0.154; protein stability index (Saccharomyces cerevisiae [2]): 0.53

QKHKKGQKQKIN was tested. Which protein stability index (Saccharomyces cerevisiae [1]) did it give?
The protein stability index was 0.0918.

And the protein stability index (Saccharomyces cerevisiae [2])?
Its protein stability index is 0.676.

Which results are given for DSMRWTFRYWVN?
protein stability index (Saccharomyces cerevisiae [1]): 0.0763; protein stability index (Saccharomyces cerevisiae [2]): 0.582

What does the source list for KKHKNGQKQKIN?
protein stability index (Saccharomyces cerevisiae [1]): 0.145; protein stability index (Saccharomyces cerevisiae [2]): 0.622

How did the protein stability index (Saccharomyces cerevisiae [1]) turn out when ARWRKGLWRGAS was run?
The protein stability index was 0.657.

And the protein stability index (Saccharomyces cerevisiae [2])?
Its protein stability index is 0.697.

Which protein stability index (Saccharomyces cerevisiae [1]) does the source give for PSLAASFRRVVG here?
The protein stability index was 0.665.

And the protein stability index (Saccharomyces cerevisiae [2])?
The protein stability index was 0.656.

How did the protein stability index (Saccharomyces cerevisiae [1]) turn out when RLIQPLPVQFLI was run?
Its protein stability index is 0.0642.

And the protein stability index (Saccharomyces cerevisiae [2])?
The protein stability index was 0.537.

What does the source list for RLIQPLSVQFLN?
protein stability index (Saccharomyces cerevisiae [1]): 0.0547; protein stability index (Saccharomyces cerevisiae [2]): 0.594

What does the source list for VDGAVGGWRLVG?
protein stability index (Saccharomyces cerevisiae [1]): 0.155; protein stability index (Saccharomyces cerevisiae [2]): 0.685

What does the source list for FSCRWTFRYWVN?
protein stability index (Saccharomyces cerevisiae [1]): 0.065; protein stability index (Saccharomyces cerevisiae [2]): 0.51

Which protein stability index (Saccharomyces cerevisiae [1]) does the source give for FSMRWTFRYTVN here?
Its protein stability index is 0.0631.

And the protein stability index (Saccharomyces cerevisiae [2])?
Its protein stability index is 0.476.

For VRGAVGGWALVG, which protein stability index (Saccharomyces cerevisiae [1]) is on record?
Its protein stability index is 0.438.

What about the protein stability index (Saccharomyces cerevisiae [2]) of the same sequence?
Its protein stability index is 0.667.

For FSMRWYFRYWVN, which protein stability index (Saccharomyces cerevisiae [1]) is on record?
The protein stability index was 0.059.

And the protein stability index (Saccharomyces cerevisiae [2])?
The protein stability index was 0.526.

For KKHKKGQKEKIN, which protein stability index (Saccharomyces cerevisiae [1]) is on record?
The protein stability index was 0.124.

And the protein stability index (Saccharomyces cerevisiae [2])?
The protein stability index was 0.606.

How did the protein stability index (Saccharomyces cerevisiae [1]) turn out when LKILLQKMNHQN was run?
Its protein stability index is 0.249.

And the protein stability index (Saccharomyces cerevisiae [2])?
Its protein stability index is 0.678.

With RLIQPLPFQFLN as the sequence, how does the protein stability index (Saccharomyces cerevisiae [1]) read?
The protein stability index was 0.0405.

And the protein stability index (Saccharomyces cerevisiae [2])?
The protein stability index was 0.624.

What does the source list for PDKRNHLIKLNN?
protein stability index (Saccharomyces cerevisiae [1]): 0.447; protein stability index (Saccharomyces cerevisiae [2]): 0.598

Which results are given for FSMRWTFRYRVN?
protein stability index (Saccharomyces cerevisiae [1]): 0.059; protein stability index (Saccharomyces cerevisiae [2]): 0.586

What does the source list for PDKRNHLIKLWN?
protein stability index (Saccharomyces cerevisiae [1]): 0.314; protein stability index (Saccharomyces cerevisiae [2]): 0.627

What does the source list for VRGAVIGWRLVG?
protein stability index (Saccharomyces cerevisiae [1]): 0.146; protein stability index (Saccharomyces cerevisiae [2]): 0.68

With FSMRWTFRYWVNY as the sequence, how does the protein stability index (Saccharomyces cerevisiae [1]) read?
Its protein stability index is 0.114.

What about the protein stability index (Saccharomyces cerevisiae [2]) of the same sequence?
Its protein stability index is 0.471.

What does the source list for RLIMPLPVQFLN?
protein stability index (Saccharomyces cerevisiae [1]): 0.0368; protein stability index (Saccharomyces cerevisiae [2]): 0.572

Which protein stability index (Saccharomyces cerevisiae [1]) does the source give for LKILRQKNNHQN here?
The protein stability index was 0.425.

And the protein stability index (Saccharomyces cerevisiae [2])?
Its protein stability index is 0.687.

LKILRQKSNHQN was tested. Which protein stability index (Saccharomyces cerevisiae [1]) did it give?
The protein stability index was 0.581.

What about the protein stability index (Saccharomyces cerevisiae [2]) of the same sequence?
Its protein stability index is 0.688.

How did the protein stability index (Saccharomyces cerevisiae [1]) turn out when LVVYLSYVACIN was run?
Its protein stability index is 0.097.

And the protein stability index (Saccharomyces cerevisiae [2])?
The protein stability index was 0.142.

For PDFRNHLIKLLN, which protein stability index (Saccharomyces cerevisiae [1]) is on record?
The protein stability index was 0.112.

And the protein stability index (Saccharomyces cerevisiae [2])?
Its protein stability index is 0.619.

With PSLAASSWRVVG as the sequence, how does the protein stability index (Saccharomyces cerevisiae [1]) read?
The protein stability index was 0.167.

What about the protein stability index (Saccharomyces cerevisiae [2]) of the same sequence?
The protein stability index was 0.694.
